Results: PMC12594620, “The Role of the [2Fe‐2S] Cluster of Escherichia coli IscR in Responding to Redox‐Cycling Agents”

Columns and labels:
[1] = molecular target: T1, [2Fe-2S]-IscR (wild type, anaerobically isolated) (Escherichia coli K12, UniProt P0AGK8 1-162); experiment: fluorescence anisotropy; [2Fe-2S]1+ cluster, anaerobic, no PMS; apparent Kd; Anisotropy: 40 mM Tris-Cl pH 7.9, 30 mM KCl, 5% glycerol, anaerobic unless stated, temperature not stated for the binding step; EMSA: 40 mM Tris-Cl pH 7.9, 150; conditions: protein: recombinant; chain copies: 2; label: 5' Texas Red on strand 1; blunt
T1 sequence: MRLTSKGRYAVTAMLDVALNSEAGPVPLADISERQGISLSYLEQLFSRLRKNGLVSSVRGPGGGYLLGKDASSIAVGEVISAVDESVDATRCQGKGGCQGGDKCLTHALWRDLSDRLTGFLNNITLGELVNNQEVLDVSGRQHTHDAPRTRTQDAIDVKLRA

[2] = molecular target: T1, [2Fe-2S]-IscR (wild type, anaerobically …); experiment: fluorescence anisotropy; air 15 min, then returned to anaerobic chamber and assayed anaerobically; Anisotropy: 40 mM Tris-Cl pH 7.9, 30 mM KCl, 5% glycerol, anaerobic unless stated, temperature not stated for the binding step; EMSA: 40 mM Tris-Cl pH 7.9, 150; conditions: protein: recombinant; chain copies: 2; label: 5' Texas Red on strand 1; blunt

B1: iscRB type 1 site 30 bp (dsDNA)
DNA 1: AAATAGTTGACCATTTTACTCGGGAATGTC
DNA 2: GACATTCCCGAGTAAAATGGTCAACTATTT
Kd [1]: 22 nM | Kd [2]: 26 nM
